Assay results: IntAct's records for PubMed 16882004

B1: Neuronal cell adhesion molecule (Mus musculus), Q810U4 (parent)
chain: MQLKIMPKKKHLSAGGVPLILFLCQMISALDVPLDLVQPPTITQQSPKDYIIDPRENIVIQCEAKGKPPPSFSWTRNGTHFDIDKDPLVTMKPGSGTLVINIMSEGKAETYEGVYQCTARNERGAAVSNNIVVRPSRSPLWTKERLEPIVLQNGQSLVLPCRPPIGLPPAIIFWMDNSFQRLPQSERVSQGLNGDLYFSNVLPEDTREDYICYARFNHTQTIQQKQPISLKVISVDELNDTIAANLSDTEFYGAKSSKERPPTFLTPEGNESHKEELRGNVLSLECIAEGLPTPIIYWIKEDGMLPANRTFYRNFKKTLQITHVSEADSGNYQCIAKNALGAVHHTISVTVKAAPYWIVAPQNLVLSPGENGTLICRANGNPKPRISWLTNGVPIEIALDDPSRKIDGDTIIFSNVQESSSAVYQCNASNKYGYLLANAFVNVLAEPPRILTSANTLYQVIANRPALLDCAFFGSPMPTIEWFKGTKGSALHEDIYVLHDNGTLEIPVAQKDSTGTYTCVARNKLGMAKNEVHLEIKDPTRIIKQPEYAVVQRGSKVSFECRVKHDHTLIPTIMWLKDNGELPNDERFSTDKDHLVVSDVKDDDGGTYTCTANTTLDSASASAVLRVVAPTPTPAPIYDVPNPPFDLELTNQLDKSVQLTWTPGDDNNSPITKFIIEYEDAMHDAGLWRHQAEVSGTQTTAQLKLSPYVNYSFRVMAENSIGRSMPSEASEQYLTKAAEPDQNPMAVEGLGTEPDNLVITWKPLNGFQSNGPGLQYKVSWRQKDGDDEWTSVVVANVSKYIVSGTPTFVPYLIKVQALNDVGFAPEPAAVMGHSGEDLPMVAPGNVRVSVVNSTLAEVHWDPVPPKSVRGHLQGYRIYYWKTQSSSKRNRRHIEKKILTFQGTKTHGMLPGLQPYSHYALNVRVVNGKGEGPASTDRGFHTPEGVPSAPSSLKIVNPTLDSLTLEWDPPSHPNGILTEYILQYQPINSTHELGPLVDLKIPANKTRWTLKNLNFSTRYKFYFYAQTSVGPGSQITEEAITTVDEAGIPPPDVGAGKGKEEWRKEIVNGSRSFFGLKGLMPGTAYKVRVGAEGDSGFVSSEDVFETGPAMASRQVDIATQGWFIGLMCAVALLILILLIVCFIRRNKGGKYPVKEKEDAHADPEIQPMKEDDGTFGEYSDAEDHKPLKKGSRTPSDRTVKKEDSDDSLVDYGEGVNGQFNEDGSFIGQYSGKKEKEPAEGNESSEAPSPVNAMNSFV

Variants of: B1
Settings: with dlg1_mouse Dlg1, Q811D0
Sequence of dlg1_mouse Dlg1, Q811D0 (Q811D0 whole entry): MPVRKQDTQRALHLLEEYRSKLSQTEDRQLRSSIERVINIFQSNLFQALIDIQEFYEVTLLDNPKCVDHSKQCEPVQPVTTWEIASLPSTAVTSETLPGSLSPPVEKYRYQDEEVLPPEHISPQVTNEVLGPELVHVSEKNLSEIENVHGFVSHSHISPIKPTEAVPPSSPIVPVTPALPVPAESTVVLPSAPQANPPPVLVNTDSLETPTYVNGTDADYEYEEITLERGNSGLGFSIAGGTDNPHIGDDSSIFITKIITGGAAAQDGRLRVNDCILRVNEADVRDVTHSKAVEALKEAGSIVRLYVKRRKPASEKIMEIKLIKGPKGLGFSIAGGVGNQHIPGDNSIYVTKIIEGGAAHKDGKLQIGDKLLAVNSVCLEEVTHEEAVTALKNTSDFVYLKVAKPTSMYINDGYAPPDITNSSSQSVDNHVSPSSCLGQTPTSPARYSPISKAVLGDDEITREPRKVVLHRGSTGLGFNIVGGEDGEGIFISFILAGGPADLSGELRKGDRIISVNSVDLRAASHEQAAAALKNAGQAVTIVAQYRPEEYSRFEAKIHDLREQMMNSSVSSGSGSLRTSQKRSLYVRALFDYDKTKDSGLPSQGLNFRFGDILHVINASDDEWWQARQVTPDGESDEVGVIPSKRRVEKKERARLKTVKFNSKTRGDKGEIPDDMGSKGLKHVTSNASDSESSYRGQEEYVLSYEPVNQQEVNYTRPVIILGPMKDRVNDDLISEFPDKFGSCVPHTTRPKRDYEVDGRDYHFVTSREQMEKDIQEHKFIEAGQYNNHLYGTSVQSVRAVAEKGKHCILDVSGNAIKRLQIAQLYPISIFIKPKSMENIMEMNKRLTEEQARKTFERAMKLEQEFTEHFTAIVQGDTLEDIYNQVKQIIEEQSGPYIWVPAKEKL

Row | Variant | effect of a mutation on the interaction
1 | V1256A | disrupting interaction
